No end group written: not given here. *: point of attachment. Biotin = O=C1N[C@H]2[C@H](CS[C@H]2CCCCC(=O)*)N1
Legend:
mouse calmodulin [1] = target: T1, mouse calmodulin (mouse, UniProt P0DP26 1-149); assay: SPR; 1 mM EGTA (no Ca2+)
mouse calmodulin [2] = target: T1, mouse calmodulin; assay: SPR; 1 mM EGTA (no Ca2+); remark: listed apart in the source

Kd (mouse calmodulin [1]): 9.7 µM | koff (mouse calmodulin [2]): 0.00207 s⁻¹
B1: biotin-mT1r2 CT peptide (cytosolic C-terminal region of mouse taste receptor type 1 subunit 2) (peptide)
peptide: Biotin-GGSGGSPKCYMILFYPERNTSAYFNSMIQGYTMRKS

Reference: publication PMC11033526 (2023)
